Assay results published in article PMC8617172, “Architecture of the outer-membrane core complex from a conjugative type IV secretion system” (Nature Communications, 2021).

What was measured:
Assay in all cases: cryo-EM structure; OMCC of TraB-strep, TraK and TraV co-expressed in E. coli, purified from membranes in 50 mM Tris-HCl pH 7.5, 300 mM NaCl, 0.23% w/v LDAO; 0.1 mg/ml on Lacey grids with ultrathin carbon; single-particle maps with C17 (inner ring, 3.3 Å), C13 (outer ring, 3.4 Å) and C1 (5.7 Å) symmetry
[1] = target: TraB (pED208 F-T4SS outer-membrane core complex protein, VirB10 homologue), strep-tagged (E. coli (plasmid pED208))
[2] = target: TraV (pED208 F-T4SS outer-membrane core complex lipoprotein, VirB7 homologue) (E. coli (plasmid pED208)) (UniProt P41069)
[3] = target: the molecule itself

## TraB (pED208 F-T4SS outer-membrane core complex protein, VirB10 homologue), strep-tagged (natural protein)
[1]
  stoichiometry N: 17 chains

## TraK (pED208 F-T4SS outer-membrane core complex protein, VirB9 homologue) (natural protein)
[1]
  stoichiometry N (TraK per TraB): 1.53

## TraV (pED208 F-T4SS outer-membrane core complex lipoprotein, VirB7 homologue) (from UniProt P41069 19-171) (natural protein)
[2]
  stoichiometry N: 26 chains
[1]
  stoichiometry N (TraV per TraB): 1.53

B1: TraK (pED208 F-T4SS outer-membrane core complex protein, VirB9 homologue) (natural protein)
chain: AQSPATISLPQGGQFRLSISNTDPNMIFIPGDKVTAITAPGGMLADKRLTTAGGVLFTSVATRTFTIFVETALGQTFSVVATPVKGEGRVYRLMSAEPPSRPETRKWETAQAYEKLLISLNRAVLTGDIPDGYGEVKPLSDGIRLPGGFSVTPLKAWAGDQLRADRYELRNANTWGVALREQDFWKPGVRAVMFDNNAQTLMGGGRMTVTVIRGNG
notes: TraK1 and TraK2 are two conformations of the same chain; 26 copies in the whole OMCC; also called TraK (VirB9); TraK1
[3]
  stoichiometry N: 26 chains
